Here are results for one variant from IntAct's records for PubMed 20190753.

B1: Vacuolar protein sorting-associated protein 33B (Homo sapiens), Q9H267 (parent)
chain: MAFPHRPDAPELPDFSMLKRLARDQLIYLLEQLPGKKDLFIEADLMSPLDRIANVSILKQHEVDKLYKVENKPALSSNEQLCFLVRPRIKNMRYIASLVNADKLAGRTRKYKVIFSPQKFYACEMVLEEEGIYGDVSCDEWAFSLLPLDVDLLSMELPEFFRDYFLEGDQRWINTVAQALHLLSTLYGPFPNCYGIGRCAKMAYELWRNLEEEEDGETKGRRPEIGHIFLLDRDVDFVTALCSQVVYEGLVDDTFRIKCGSVDFGPEVTSSDKSLKVLLNAEDKVFNEIRNEHFSNVFGFLSQKARNLQAQYDRRRGMDIKQMKNFVSQELKGLKQEHRLLSLHIGACESIMKKKTKQDFQELIKTEHALLEGFNIRESTSYIEEHIDRQVSPIESLRLMCLLSITENGLIPKDYRSLKTQYLQSYGPEHLLTFSNLRRAGLLTEQAPGDTLTAVESKVSKLVTDKAAGKITDAFSSLAKRSNFRAISKKLNLIPRVDGEYDLKVPRDMAYVFGGAYVPLSCRIIEQVLERRSWQGLDEVVRLLNCSDFAFTDMTKEDKASSESLRLILVVFLGGCTFSEISALRFLGREKGYRFIFLTTAVTNSARLMEAMSEVKA
partner: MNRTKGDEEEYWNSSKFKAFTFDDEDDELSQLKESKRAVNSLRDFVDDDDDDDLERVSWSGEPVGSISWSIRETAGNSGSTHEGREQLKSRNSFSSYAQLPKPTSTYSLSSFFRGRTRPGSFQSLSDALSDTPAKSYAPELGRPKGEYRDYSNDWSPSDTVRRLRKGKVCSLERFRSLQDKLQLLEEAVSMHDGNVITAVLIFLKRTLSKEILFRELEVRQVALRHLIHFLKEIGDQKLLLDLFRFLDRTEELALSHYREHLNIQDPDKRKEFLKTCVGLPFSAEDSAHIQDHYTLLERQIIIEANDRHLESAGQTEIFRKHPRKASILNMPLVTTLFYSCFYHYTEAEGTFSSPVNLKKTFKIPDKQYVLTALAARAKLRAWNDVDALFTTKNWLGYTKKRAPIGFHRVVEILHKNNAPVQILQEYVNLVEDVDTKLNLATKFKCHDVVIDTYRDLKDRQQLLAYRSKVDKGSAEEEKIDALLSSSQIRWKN

The variants in this assay derive from B1. Particulars: with spe39_human VIPAS39, Q9H9C1.
In the case of L30P, the “effect of a mutation on the interaction” value was “decreasing interaction”.
